Target: V-domain RAGE (vRAGE) (human, UniProt Q15109 23-121)
Experiment: QCM (27 MHz); vRAGE immobilized; N = 3; 27-MHz QCM, vRAGE immobilized on sensor; buffer, salt, pH and temperature not stated (as described previously, ref 16)

Sequence of V-domain RAGE (vRAGE) (Q15109 23-121): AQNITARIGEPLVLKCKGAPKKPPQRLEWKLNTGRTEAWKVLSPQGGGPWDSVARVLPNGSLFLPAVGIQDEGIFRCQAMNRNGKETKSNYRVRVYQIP

B1: RAGE-aptamer (XNA)
DNA: CCTGATATGGTGTCACCGCCGCCTTAGTATTGGTGTCTAC
modifications: phosphorothioate nucleotides at capital letters: ccTgATATggTgTcAccgccgccTTAgTATTggTgTcTAc (DNA)
Question: With B1 as the binder, how does the Kd read?
Answer: 4.44 ± 0.56 nM

Source: paper PMC6746150, “Long-Term Local Injection of RAGE-Aptamer Suppresses the Growth of Malignant Melanoma in Nude Mice”
